Data reported in PMC10371762 (Bioactive Materials, 2023).

T1: human BMPR-II extracellular domain (human, UniProt Q13873 32-150, biotinylated at a 1:1 molar stoichiometric ratio using Sulfo-NHS-LC-biotin)
T1 sequence: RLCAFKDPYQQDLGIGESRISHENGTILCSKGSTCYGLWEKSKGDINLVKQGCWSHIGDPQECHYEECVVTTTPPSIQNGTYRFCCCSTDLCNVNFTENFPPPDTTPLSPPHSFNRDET

T2: Noggin (UniProt Q13253 28-232, biotinylated)
T2 sequence: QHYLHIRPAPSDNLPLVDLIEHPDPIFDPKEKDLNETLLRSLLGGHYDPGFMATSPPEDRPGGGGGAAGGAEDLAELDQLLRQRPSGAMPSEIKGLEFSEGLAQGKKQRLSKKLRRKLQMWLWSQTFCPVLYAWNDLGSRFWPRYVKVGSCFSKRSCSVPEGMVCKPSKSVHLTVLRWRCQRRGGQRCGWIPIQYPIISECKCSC


Key:
Test in all cases: SPR
[1] = biological target: T1, human BMPR-II extracellular domain
Noggin = biological target: T2, Noggin
[2] = biological target: human ALK1 extracellular domain (human, UniProt P37023 22-118, biotinylated at a 1:1 molar stoichiometric ratio using Sulfo-NHS-LC-biotin)
Sequence of human ALK1 extracellular domain (P37023 22-118): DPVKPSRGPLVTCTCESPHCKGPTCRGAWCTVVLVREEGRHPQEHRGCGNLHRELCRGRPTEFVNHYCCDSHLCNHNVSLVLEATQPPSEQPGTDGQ

Binder | Kd [1] | Kd (Noggin) | Kd [2]
BMP9 WT (ligand) SAGAGSHCQKTSLRVNFEDIGWDSWIIAPKEYEAYECKGGCFFPLADDVTPTKHAIVQTLVHLKFPTKVGKACCVPTKLSPISVLYKDDMGVPTLKYHYEGMSVAECGCR | 13.3 nM |  | 
BMP2 WT (ligand) QAKHKQRKRLKSSCKRHPLYVDFSDVGWNDWIVAPPGYHAFYCHGECPFPLADHLNSTNHAIVQTLVNSVNSKIPKACCVPTELSAISMLYLDENEKVVLKNYQDMVVEGCGCR | 66.9 nM | 1.2 nM | 
BMP9 HB (ligand) MAQAHKHQRKRLKSSCQKTSLRVNFEDIGWDSWIIAPKEYEAYECKGGCFFPLADDVTPTKHAIVQTLVHLKFPTKVGKACCVPTKLSPISVLYKDDMGVPTLKYHYEGMSVAECGCR | 11.6 nM |  | 5.59 nM
